Experimental data from the supplement of paper PMC9112550, “Optimization of the antimicrobial peptide Bac7 by deep mutational scanning” (BMC Biology, 2022).

System: Escherichia coli TOP10
Experiment: shrunken log2 fold change of peptide-encoding DNA abundance (4.5 h post-induction vs induction); higher = less antimicrobial activity (less host growth inhibition)
Conditions: time post-induction: 4.5 h; library: site-saturation at positions 5, 18, 19, 20
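Note: peptides expressed intracellularly from a pBAD plasmid library in pooled LB shake-flask culture, induced with 0.3% L-arabinose, DNA abundance read by NGS, three biological replicates, DESeq2 with apeglm shrinkage.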

**Q.** For RRIRLRPPRLPRPRPRPVKRPRP, which “shrunken log2 fold change” value is on record?
**A.** 0.0647

**Q.** Which “shrunken log2 fold change” value does the source give for RRIRRRPPRLPRPRPRPPHDPRP here?
**A.** 1.49

**Q.** How did the “shrunken log2 fold change” value turn out when RRIRKRPPRLPRPRPRPRPTPRP was run?
**A.** 1.04

**Q.** For RRIRARPPRLPRPRPRPPGLPRP, which “shrunken log2 fold change” value is on record?
**A.** 0.517

**Q.** How did the “shrunken log2 fold change” value turn out when RRIRTRPPRLPRPRPRPWWRPRP was run?
**A.** -0.00919

**Q.** Which “shrunken log2 fold change” value does the source give for RRIRCRPPRLPRPRPRPSTTPRP here?
**A.** -0.257

**Q.** RRIRQRPPRLPRPRPRPMLGPRP was tested. Which “shrunken log2 fold change” value did it give?
**A.** 0.0371

**Q.** With RRIRHRPPRLPRPRPRPVKHPRP as the sequence, how does the “shrunken log2 fold change” value read?
**A.** 0.0596

**Q.** With RRIRPRPPRLPRPRPRPAFPPRP as the sequence, how does the “shrunken log2 fold change” value read?
**A.** 0.409

**Q.** For RRIRQRPPRLPRPRPRPAWGPRP, which “shrunken log2 fold change” value is on record?
**A.** 0.34

**Q.** Which “shrunken log2 fold change” value does the source give for RRIRARPPRLPRPRPRPIRWPRP here?
**A.** 0.211

**Q.** With RRIRDRPPRLPRPRPRPNLLPRP as the sequence, how does the “shrunken log2 fold change” value read?
**A.** -0.0507

**Q.** Which “shrunken log2 fold change” value does the source give for RRIRHRPPRLPRPRPRPVRAPRP here?
**A.** 0.571

**Q.** How did the “shrunken log2 fold change” value turn out when RRIRRRPPRLPRPRPRPHSYPRP was run?
**A.** -0.187

**Q.** For RRIRGRPPRLPRPRPRPMFDPRP, which “shrunken log2 fold change” value is on record?
**A.** 0.662

**Q.** RRIRFRPPRLPRPRPRPIFFPRP was tested. Which “shrunken log2 fold change” value did it give?
**A.** -0.137

**Q.** For RRIRGRPPRLPRPRPRPDESPRP, which “shrunken log2 fold change” value is on record?
**A.** 0.0316

**Q.** Which “shrunken log2 fold change” value does the source give for RRIRIRPPRLPRPRPRPQDFPRP here?
**A.** -0.1

**Q.** Which “shrunken log2 fold change” value does the source give for RRIRYRPPRLPRPRPRPKQNPRP here?
**A.** -0.473

**Q.** With RRIRERPPRLPRPRPRPDAIPRP as the sequence, how does the “shrunken log2 fold change” value read?
**A.** -0.166

**Q.** How did the “shrunken log2 fold change” value turn out when RRIRIRPPRLPRPRPRPVTNPRP was run?
**A.** -0.208

**Q.** Which “shrunken log2 fold change” value does the source give for RRIRERPPRLPRPRPRPTHMPRP here?
**A.** -0.182

**Q.** For RRIRGRPPRLPRPRPRPQGMPRP, which “shrunken log2 fold change” value is on record?
**A.** 0.0957

**Q.** Which “shrunken log2 fold change” value does the source give for RRIRDRPPRLPRPRPRPKPTPRP here?
**A.** 0.0678

**Q.** For RRIRWRPPRLPRPRPRPWNGPRP, which “shrunken log2 fold change” value is on record?
**A.** 0.0206

**Q.** With RRIRARPPRLPRPRPRPREAPRP as the sequence, how does the “shrunken log2 fold change” value read?
**A.** 1.25

**Q.** How did the “shrunken log2 fold change” value turn out when RRIRMRPPRLPRPRPRPKFPPRP was run?
**A.** 0.455

**Q.** How did the “shrunken log2 fold change” value turn out when RRIRRRPPRLPRPRPRPSESPRP was run?
**A.** 0.0539

**Q.** For RRIRCRPPRLPRPRPRPKKPPRP, which “shrunken log2 fold change” value is on record?
**A.** -0.0369

**Q.** With RRIRMRPPRLPRPRPRPEQPPRP as the sequence, how does the “shrunken log2 fold change” value read?
**A.** 0.395

**Q.** How did the “shrunken log2 fold change” value turn out when RRIRYRPPRLPRPRPRPLDRPRP was run?
**A.** -0.182

**Q.** For RRIRWRPPRLPRPRPRPVLKPRP, which “shrunken log2 fold change” value is on record?
**A.** 0.637

**Q.** For RRIRRRPPRLPRPRPRPEVMPRP, which “shrunken log2 fold change” value is on record?
**A.** 0.212

**Q.** RRIRPRPPRLPRPRPRPQFEPRP was tested. Which “shrunken log2 fold change” value did it give?
**A.** 0.0184

**Q.** For RRIRDRPPRLPRPRPRPSPRPRP, which “shrunken log2 fold change” value is on record?
**A.** 0.00292

**Q.** With RRIRTRPPRLPRPRPRPIRIPRP as the sequence, how does the “shrunken log2 fold change” value read?
**A.** -0.202

**Q.** Which “shrunken log2 fold change” value does the source give for RRIRWRPPRLPRPRPRPCVCPRP here?
**A.** 0.222

**Q.** With RRIRERPPRLPRPRPRPMHKPRP as the sequence, how does the “shrunken log2 fold change” value read?
**A.** 0.0621

**Q.** How did the “shrunken log2 fold change” value turn out when RRIRHRPPRLPRPRPRPAAPPRP was run?
**A.** 0.093

**Q.** With RRIRQRPPRLPRPRPRPYCAPRP as the sequence, how does the “shrunken log2 fold change” value read?
**A.** -0.624

**Q.** How did the “shrunken log2 fold change” value turn out when RRIRPRPPRLPRPRPRPVLQPRP was run?
**A.** 0.162

**Q.** Which “shrunken log2 fold change” value does the source give for RRIRHRPPRLPRPRPRPNSNPRP here?
**A.** -1.16

**Q.** How did the “shrunken log2 fold change” value turn out when RRIRPRPPRLPRPRPRPIGPPRP was run?
**A.** 0.162

**Q.** With RRIRERPPRLPRPRPRPHTFPRP as the sequence, how does the “shrunken log2 fold change” value read?
**A.** -0.14

**Q.** Which “shrunken log2 fold change” value does the source give for RRIRRRPPRLPRPRPRPYDWPRP here?
**A.** -0.0665

**Q.** Which “shrunken log2 fold change” value does the source give for RRIRTRPPRLPRPRPRPSHGPRP here?
**A.** 0.0388

**Q.** RRIRPRPPRLPRPRPRPDDDPRP was tested. Which “shrunken log2 fold change” value did it give?
**A.** -0.175

**Q.** For RRIRNRPPRLPRPRPRPYAFPRP, which “shrunken log2 fold change” value is on record?
**A.** 0.0147

**Q.** For RRIRIRPPRLPRPRPRPCFPPRP, which “shrunken log2 fold change” value is on record?
**A.** -0.569

**Q.** With RRIRYRPPRLPRPRPRPHTWPRP as the sequence, how does the “shrunken log2 fold change” value read?
**A.** -0.0877

**Q.** With RRIRYRPPRLPRPRPRPMWYPRP as the sequence, how does the “shrunken log2 fold change” value read?
**A.** -0.884

**Q.** With RRIRHRPPRLPRPRPRPCLSPRP as the sequence, how does the “shrunken log2 fold change” value read?
**A.** 0.0289

**Q.** Which “shrunken log2 fold change” value does the source give for RRIRGRPPRLPRPRPRPIVAPRP here?
**A.** 0.727

**Q.** How did the “shrunken log2 fold change” value turn out when RRIRSRPPRLPRPRPRPIVYPRP was run?
**A.** -0.255

**Q.** How did the “shrunken log2 fold change” value turn out when RRIRIRPPRLPRPRPRPHDNPRP was run?
**A.** -0.53

**Q.** For RRIRERPPRLPRPRPRPCFKPRP, which “shrunken log2 fold change” value is on record?
**A.** -0.0311

**Q.** For RRIRNRPPRLPRPRPRPAIHPRP, which “shrunken log2 fold change” value is on record?
**A.** 0.0529

**Q.** Which “shrunken log2 fold change” value does the source give for RRIRARPPRLPRPRPRPSCNPRP here?
**A.** -0.515

**Q.** For RRIRKRPPRLPRPRPRPLCLPRP, which “shrunken log2 fold change” value is on record?
**A.** -0.126

**Q.** For RRIRIRPPRLPRPRPRPKFPPRP, which “shrunken log2 fold change” value is on record?
**A.** -0.204

**Q.** RRIRMRPPRLPRPRPRPKFEPRP was tested. Which “shrunken log2 fold change” value did it give?
**A.** 0.109

**Q.** For RRIRDRPPRLPRPRPRPQNWPRP, which “shrunken log2 fold change” value is on record?
**A.** -0.00585

**Q.** Which “shrunken log2 fold change” value does the source give for RRIRARPPRLPRPRPRPHYPPRP here?
**A.** -1.36

**Q.** With RRIRPRPPRLPRPRPRPARYPRP as the sequence, how does the “shrunken log2 fold change” value read?
**A.** 0.19

**Q.** How did the “shrunken log2 fold change” value turn out when RRIRYRPPRLPRPRPRPRFHPRP was run?
**A.** -0.939

**Q.** For RRIRCRPPRLPRPRPRPMDHPRP, which “shrunken log2 fold change” value is on record?
**A.** -0.904

**Q.** With RRIRRRPPRLPRPRPRPDISPRP as the sequence, how does the “shrunken log2 fold change” value read?
**A.** 0.0322

**Q.** With RRIRGRPPRLPRPRPRPHRDPRP as the sequence, how does the “shrunken log2 fold change” value read?
**A.** 0.0592

**Q.** RRIRYRPPRLPRPRPRPQSGPRP was tested. Which “shrunken log2 fold change” value did it give?
**A.** -0.223

**Q.** For RRIRGRPPRLPRPRPRPQWEPRP, which “shrunken log2 fold change” value is on record?
**A.** 0.0931

**Q.** RRIRWRPPRLPRPRPRPVYRPRP was tested. Which “shrunken log2 fold change” value did it give?
**A.** -0.0858

**Q.** For RRIRSRPPRLPRPRPRPIHMPRP, which “shrunken log2 fold change” value is on record?
**A.** -0.397

**Q.** For RRIRDRPPRLPRPRPRPQVWPRP, which “shrunken log2 fold change” value is on record?
**A.** 0.0447

**Q.** RRIRNRPPRLPRPRPRPQAFPRP was tested. Which “shrunken log2 fold change” value did it give?
**A.** -0.00429

**Q.** RRIRSRPPRLPRPRPRPFDAPRP was tested. Which “shrunken log2 fold change” value did it give?
**A.** -0.279
